Drawing on PMC12654582, this text covers stoichiometry N and Kd for 7 substances.

pKd: −log10 of the molar value. Where two headings read alike, the source gives them in different places.

For data set [1], the target named is phosphorylated PmrA M12I (Acinetobacter baumannii (strain ATCC 19606)). Nature of the data set: native gel or EMSA; Native PAGE after reaction of 40 uM PmrA with 20 uM PmrB and ATP (phosphorylated PmrA); 14% Tris-glycine gel, 4 C.
The target of data set [2] is phosphorylated PmrA G54E (Acinetobacter baumannii (strain ATCC 19606)). The data set is described as above.
Data set [3] concerns PmrA M12I (Acinetobacter baumannii ATCC 19606). Nature of the data set: fluorescence anisotropy. (In general: Fluorescence polarisation rises when a labelled molecule tumbles more slowly, as on binding a larger partner.)
For data set [4], the system named is PmrA I13M (Acinetobacter baumannii ATCC 19606). Description: fluorescence anisotropy.
The test system of data set [5] is PmrA M12I (Acinetobacter baumannii ATCC 19606). Description: fluorescence anisotropy. The source holds these as a separate data set.
For data set [6], the system named is PmrA I13M (Acinetobacter baumannii ATCC 19606). Nature of the data set: fluorescence anisotropy. The source holds these as a separate data set.
Data set [7] addresses phosphorylated PmrA I13M (Acinetobacter baumannii (strain ATCC 19606)). Description: native gel or EMSA; Native PAGE after reaction of 40 uM PmrA with 20 uM PmrB and ATP (phosphorylated PmrA); 14% Tris-glycine gel, 4 C.
The target of data set [8] is phosphorylated PmrA D10N (Acinetobacter baumannii (strain ATCC 19606)). The description is as above.
Data set [9] has as its target phosphorylated PmrA S119T (Acinetobacter baumannii (strain ATCC 19606)). The description is as above.
The target in data set [10] is phosphorylated WT PmrA (Acinetobacter baumannii (strain ATCC 19606)). The description is as above.

Consider “phosphorylated PmrA M12I (natural protein)”, for which the stoichiometry N (as a rule, a count of units in the complex or per binding partner) in data set [1] was found to be 2. For the substance “phosphorylated PmrA G54E (natural protein)”, in [2], the stoichiometry N is 2. On to AbpmrC_30mer FAM, for which the pKd – broadly, −log10 of the Kd, conventionally taken in molar units – was 7.37 in data set [3], 7.29 in [4], 4.68 in [5] and 4.76 in data set [6]. In the case of “phosphorylated PmrA I13M (natural protein)”, the stoichiometry N in data set [7] was 2. “phosphorylated PmrA D10N (natural protein)” gave a stoichiometry N in data set [8] of 2. In the case of “phosphorylated PmrA S119T (natural protein)”, the stoichiometry N in data set [9] was found to be 2.

“phosphorylated WT PmrA (natural protein)” gave a stoichiometry N in data set [10] of 2.
